From PMC9200344, “The Caenorhabditis elegans TDRD5/7-like protein, LOTR-1, interacts with the helicase ZNFX-1 to balance epigenetic signals in the germline” (PLoS Genetics, 2022)
Each block holds one molecule with its values, some of them ahead of it.

What was measured:
[1] = molecular target: 3xFLAG::GFP::LOTR-1 with Tudor deletion (sam102) (C. elegans (endogenous in embryos and young adults)); assay: affinity purification with mass spectrometry; anti-FLAG (M2) IP of 3xFLAG::GFP::LOTR-1 (wild type, LOTUS or Tudor deletion) on Protein G magnetic beads from embryo and young adult extracts, 4°C, washes with 300 mM NaCl; quantitative MS against the lotr-1 deletion expressing 3xFLAG::GFP alone
[2] = molecular target: 3xFLAG::GFP::LOTR-1 with e+mLOTUS deletion (sam113) (C. elegans (endogenous in embryos and young adults)); assay: as above
[3] = molecular target: T1, 3xFLAG::GFP::ZNFX-1 (C. elegans (endogenous in embryos and …, UniProt E9P860 1-2443)); assay: affinity purification with mass spectrometry; anti-FLAG IP of 3xFLAG::GFP::ZNFX-1 from embryos and adults of lotr-1(xf58) mutants (in-frame deletion that removes most of the LOTUS domain); quantitative MS compared with the wild-type background; settings: partners not purified
T1 construct: ZNFX-1, Z-granule helicase, C. elegans; also called FLAG-tagged ZNFX-1; source: tagged ZNFX-1 expressed in worms, C. elegans embryo and young adult lysate
T1 sequence (E9P860 whole entry, the tested form may be a part): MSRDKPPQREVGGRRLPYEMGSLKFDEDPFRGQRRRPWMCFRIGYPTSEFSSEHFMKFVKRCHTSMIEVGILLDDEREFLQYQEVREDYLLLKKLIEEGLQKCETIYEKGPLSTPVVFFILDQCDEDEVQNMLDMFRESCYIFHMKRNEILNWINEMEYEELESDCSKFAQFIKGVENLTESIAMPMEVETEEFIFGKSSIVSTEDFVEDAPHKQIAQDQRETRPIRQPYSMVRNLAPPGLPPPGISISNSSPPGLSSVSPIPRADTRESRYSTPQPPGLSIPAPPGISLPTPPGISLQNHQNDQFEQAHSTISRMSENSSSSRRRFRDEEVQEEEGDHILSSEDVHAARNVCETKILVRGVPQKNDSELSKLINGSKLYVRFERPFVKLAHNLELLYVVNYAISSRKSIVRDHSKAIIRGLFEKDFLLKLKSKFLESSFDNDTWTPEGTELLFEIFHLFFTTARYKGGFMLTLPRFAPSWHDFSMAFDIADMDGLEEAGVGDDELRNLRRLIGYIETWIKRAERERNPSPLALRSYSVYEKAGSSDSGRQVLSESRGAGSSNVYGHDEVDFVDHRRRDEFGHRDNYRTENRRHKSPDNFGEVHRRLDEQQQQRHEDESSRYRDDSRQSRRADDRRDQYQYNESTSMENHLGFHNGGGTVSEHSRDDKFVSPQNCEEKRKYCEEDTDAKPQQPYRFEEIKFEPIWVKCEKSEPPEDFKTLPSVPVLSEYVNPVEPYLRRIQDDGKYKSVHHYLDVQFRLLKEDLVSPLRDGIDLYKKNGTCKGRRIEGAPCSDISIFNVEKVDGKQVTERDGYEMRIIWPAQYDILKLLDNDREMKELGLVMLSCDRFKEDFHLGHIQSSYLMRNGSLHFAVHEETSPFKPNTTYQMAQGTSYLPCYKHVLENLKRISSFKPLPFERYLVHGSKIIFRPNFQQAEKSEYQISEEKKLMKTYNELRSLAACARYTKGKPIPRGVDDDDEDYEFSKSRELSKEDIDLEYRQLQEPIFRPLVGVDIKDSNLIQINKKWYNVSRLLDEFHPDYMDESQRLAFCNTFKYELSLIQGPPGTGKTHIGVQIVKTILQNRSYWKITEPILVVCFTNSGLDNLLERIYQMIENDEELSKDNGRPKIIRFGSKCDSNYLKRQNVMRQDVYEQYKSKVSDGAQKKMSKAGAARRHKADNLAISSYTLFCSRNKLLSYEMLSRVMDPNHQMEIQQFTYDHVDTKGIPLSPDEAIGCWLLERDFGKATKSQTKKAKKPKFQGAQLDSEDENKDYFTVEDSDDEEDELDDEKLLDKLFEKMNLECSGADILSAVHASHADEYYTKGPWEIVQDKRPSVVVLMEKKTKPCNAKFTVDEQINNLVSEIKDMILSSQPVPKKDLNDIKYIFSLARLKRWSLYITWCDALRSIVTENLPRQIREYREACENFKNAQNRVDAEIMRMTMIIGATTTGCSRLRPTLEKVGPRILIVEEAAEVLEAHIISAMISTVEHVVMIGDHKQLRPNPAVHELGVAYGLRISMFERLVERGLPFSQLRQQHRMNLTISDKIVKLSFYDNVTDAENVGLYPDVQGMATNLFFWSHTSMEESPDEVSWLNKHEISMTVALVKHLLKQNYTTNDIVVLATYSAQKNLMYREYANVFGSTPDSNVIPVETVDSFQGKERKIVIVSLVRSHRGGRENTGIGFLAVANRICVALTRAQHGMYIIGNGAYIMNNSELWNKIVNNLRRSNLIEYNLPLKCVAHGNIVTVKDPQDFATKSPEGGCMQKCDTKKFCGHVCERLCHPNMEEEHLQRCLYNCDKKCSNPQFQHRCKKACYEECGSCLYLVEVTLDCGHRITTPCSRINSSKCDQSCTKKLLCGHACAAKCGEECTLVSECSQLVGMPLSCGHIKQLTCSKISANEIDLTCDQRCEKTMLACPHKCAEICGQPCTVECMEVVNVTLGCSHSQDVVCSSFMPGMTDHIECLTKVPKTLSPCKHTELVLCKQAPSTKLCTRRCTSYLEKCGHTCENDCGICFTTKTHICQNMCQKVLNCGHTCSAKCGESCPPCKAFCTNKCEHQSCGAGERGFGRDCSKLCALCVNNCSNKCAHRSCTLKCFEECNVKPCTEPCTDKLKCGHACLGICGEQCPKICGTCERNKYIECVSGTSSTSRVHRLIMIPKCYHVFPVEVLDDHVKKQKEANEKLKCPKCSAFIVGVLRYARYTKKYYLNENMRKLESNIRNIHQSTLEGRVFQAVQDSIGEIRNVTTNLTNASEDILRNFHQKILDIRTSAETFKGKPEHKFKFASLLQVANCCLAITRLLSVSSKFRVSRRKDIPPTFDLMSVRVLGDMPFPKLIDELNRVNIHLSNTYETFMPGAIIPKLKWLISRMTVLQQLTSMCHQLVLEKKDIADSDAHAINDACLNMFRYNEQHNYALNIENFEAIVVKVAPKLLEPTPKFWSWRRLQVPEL

- percent reduction of association against wild-type LOTR-1 (embryos) [1]: 90%
- fold change of association against wild-type LOTR-1 (embryos) [2]: 2 fold
Molecule: MEG-3 (natural protein)

- fold change of association in lotr-1(xf58) mutant adults against wild type [3]: 2 fold
B1: MIP-2 (natural protein, C. elegans (endogenous in young adults), UniProt P90898 1-666, looked up)
chain: MSEEEGKEKMNKMRKRIERDAYSVLLSFKDGASPKQVEQRMDDTLGYDYCSKYHLAGVYDMAQILIEHPDVRQTYEGKFKIIANEDNQDLVDLISKQSDGPRNKGSSKRGRRSSSSAGYHQRSMFGGELSRSPRYSSCRPRSYASFGKAASKKLFQNFGQPSRPFSVLSSSKASTSSAIQSFGTGNHDSTFGKSSGSNANPTNPPVAPSIQRPLMRPSTASSIPIFILRSGSRSPVKKHVQIKTSSSSSHMPTITEFMNNTKRMMVKELPASVHLSEMTELYEREFGAPVDPLLLFSKSWMLMAKTTFKEFLQVIDGEVSLREKWLADQGTTTKSVLELPSRKVEATTVAQLPISQGFRYQDPNSKPKADLASISKSLDGLTLNARKSKKEASKSDMMPFIPKNHREIVTKRFGNAPSSVKADSIVERVQSTSCIFGRQSVPSVLSISSSSTVVPEKLNEEGLKYDSKELLQLKALKKTDVMLVNVYASLKAFPQMIDARAKALMQQNLEVQRNMASRASLNVVAQVQRPSSSINLQRVRVNPNQCVKKVVPVRTLGQALAEVRRQREQVEQEAFNEQPEPSPSPRLGMGSSSHAASNVSDDGWGAQVVQKVEKSPPKPFTVLLPPMSKGAGVKIRPRSRVVLCHSSASSFPPSLNSDFSPNISQA
notes: MIP-2, LOTUS-domain protein, C. elegans; source: endogenous, C. elegans young adult lysate
